Target: recombinant human PD-L1-mFc fusion protein (human) (UniProt Q9NZQ7)
Assay: ELISA, human PD-L1-mFc immobilised (1 µg/mL), anti-human kappa-HRP detection

Sequence of recombinant human PD-L1-mFc fusion protein (human) (Q9NZQ7 19-238): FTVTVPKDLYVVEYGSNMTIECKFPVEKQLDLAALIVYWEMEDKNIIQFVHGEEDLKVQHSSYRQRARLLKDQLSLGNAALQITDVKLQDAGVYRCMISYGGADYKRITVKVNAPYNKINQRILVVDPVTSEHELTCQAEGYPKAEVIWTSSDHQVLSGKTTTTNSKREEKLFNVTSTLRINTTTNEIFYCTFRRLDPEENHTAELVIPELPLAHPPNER

EC50: 0.107 nM
Substance: Avelumab/TGFβR (antibody)

Source: patent US20230078173A1
